Here are results for 1 molecule from patent CN1977043A (CBR INST FOR BIOMED RES INC, dated 2007).

In the assay the target is IgM CM-22. Kind of assay: SPR (Biacore CM5), N2 10.5-120μM injected over amine-coupled IgM CM-22, steady-state fit to 1:1 Langmuir isotherm.
Sequence of IgM CM-22 (chain, as listed by the source, chain 1 of 2): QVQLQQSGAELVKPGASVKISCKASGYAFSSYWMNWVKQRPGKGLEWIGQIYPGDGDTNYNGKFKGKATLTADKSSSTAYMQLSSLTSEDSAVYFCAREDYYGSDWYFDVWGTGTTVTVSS
Sequence of IgM CM-22 (chain, as listed by the source, chain 2 of 2): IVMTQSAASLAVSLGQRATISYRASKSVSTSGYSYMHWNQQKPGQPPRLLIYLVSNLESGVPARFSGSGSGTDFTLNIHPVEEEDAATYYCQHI

On to LMKNMDPLNDNV (also called 自身肽N2; N2肽) [self peptide N2], for which binding was put at a Kd of 123 µM.
